From the DeepSol protein solubility set come the findings set out here.

This series is described as follows: soluble on expression in E. coli; label from the status in PepcDB or PDB records.
As to “TQDMELNVNVNVTFQQNKLLSLSGMYGGENISAPEYKSLASLDGAGFHGGYNHIVYQMVGQPLGVFYLPHCKGLIADGNGGYTYDIADLNGGGVSLEDGEDRYVAGQAVPKTLLGSNISFRYKRFDLSVQVNGAFGHKIYNGTSLTYMNMNIFPDYNVMKKAPGRNIKDQTATDYWLEKGDYINFDYVTVGWNVPVAKWKKYVQSFRLAFTVNNLATITGYSGLSPMINSSTVNSTLGVDDKRAYPLARTYTLGLSINF”, the “soluble on expression in E. coli” value is given as “not soluble”.
Next, “MGSDKIHHHHHHMSESKIDNRLWSSKARNLSPYVPGEQPQHDDLCKLNTNENPFPPSPKVGEAITKVLAQQADDLRLYPAPESEELRGALAALYNLDINQVFVGNGSDEVLALVFASFFLKNRPVLAPDISYSFYPVYANTFGIELVQIPLEADFSISPDAYRRPCSGIIIANPNAPTGLLLSLADIRKLAGEHSDSVIVIDEAYIDFAQLEEASAESQMSAISLINEFDNLLVTQTFSKSRSLAGLRVGMAFGNASLIEALTRMKNSFNSYPLDKLAQAGATASVLDVEYFEQTCQQVIDLRTSLTAELTALGYDVLPSHANFVFARPHDGAASQVAEVLREQGIIVRHFDKPRINEYLRITIGTPSQHERLINALKALQAVADVEAS”: “not soluble”.
With “MSVTFPSSGCPSFFNIFYEEGIVMKLTIYYDGQFWVGVVEVVDNGKLRAFRHLFGKEPRDSEVLEFVHNQLLNMMAQAEQEGVRLQGRRQKKINPKRLQRQVSKELKNAGVTSKAQEAIKLELEARKQKKKQIMKEQREHVKEQRYMLKKQKAKKKHRGKLEHHHHHH” the entry was “soluble”; with “MGSDKIHHHHHHRYSLLYVPNSFIVPGGRFREFYYWDAYWIIKGLIASDMYNTTRSMIRNLASMVDKYGFVPNGGRVYYLQRSQPPFLAAMVYELYEATNDKAFVAELLPTLLKELNFWNEKRMTDVQMNGKSFKVYQYKTASNVPRPESYRVDTQNSAKLANGADQQQFYQDLASAAESGWDFSTRWFSDYKTLTSIETTKVLPVDLNGLLCWNMDIMEYLYEQIGDTKNSQIFRNKRADFRDTVQNVFYNRTDGTWYDYNLRTQSHNPRFYTSTAVPLFTNCYNTLNTGKSQKVFDYMDKMGVFTYPGGIPTSMSQESDQQWDFPNGWSPNNHMIIEGLRKSANPEMQDKGFLIASKWVMGNFRVFYETGHMWEKYNVIGSYPQPGSGGEYDVQDGFGWSNGAILDLLLTYNDRLFVPENFVNTTVTPSVESTTKSAPKYAKLPWVLVFAFMIRQLFNY”, “not soluble”.
For “MGSDKIHHHHHHMEYNDVVEAVISALKKAHTELPEDVVTAIKKAYDSEENDIAKRNLEAILKNIEAAKKLGVPMCQDTGIPVFFVEVGRELCLDFDLKEAIVEGVRKATAEIPLRPNAVHPITRENSGDNTGLGIPQINVELVKGDELRMVVMPKGAGSENVSALKMMLPTQVDKIKDFVVETVKNAGGKPCPPIFVGVGVGSTFDGAAKLAKKALLRNVLEMNDFELELLEAVNELGIGAMGLGGKYTALAVLVEFGHCHTASLPVAVNIQCWANRRAEVVLR”, the “soluble on expression in E. coli” value is listed as “not soluble”.
Next, “MGSDKIHHHHHHMKKGLVMEGGAMRGLYTAGVTDVLMKYGIKFDGAVGVSAGVTFGCNYKSLQPGRVLRYNLRYGSRPQFKSWRSWIKTGDLYGADFCYYTLPEVLDPFDTAAFARNPMDFWCVATDVETAQPAYHKLTTGKGRDVAWIRASASIPVFARPVKIGGHAYWDGGVSDSIPVRFLLDKDYDKAVVILTQPAGYQKEPSRLQPVIDRVLKKYPAVVARLRQRHLEYNACLAYIAKEEAAGHLFVFRPSQGIDVSAMEKDPNRLKAVYQVGVRGCQAAIGGLEGIFTRLSTKNGD”: “not soluble”; “MSLSIFSHFQERFEATRQEEYSLQEYLDLCKQDKTAYASAAERLLMAIGEPELLDTSVDSRLSRIFSNKVIRRYPAFADFHGMEECIDQIVAFFRHAAQGLEEKKQILYLLGPVGGGKSSLAEKLKQLMEKVPFYAIKGSPVFESPLGLFNPDEDGAILEEDYGIPRRYLRSIMSPWATKRLNEFGGDISQFRVVKLYPSILNQIAIAKTEPGDENNQDISALVGKVDIRKLEEYPQNDADAYSYSGALCRANQGLMEFVEMFKAPIKVLHPLLTATQEGNYNSTEGLGALPYSGIILAHSNESEWHSFRNNKNNEAFIDRIYIVKVPYCLRVADEIKIYDKLLVNSSLAHAHCAPDTLKMLSQFSVLSRLKEPENSNIYSKMRVYDGENLKDTDPKAKSIQEYRDSAGVDEGMAGLSTRFAFKILSKVFNFDPHEVAANPVHLLYVLEQQIEQEQFQPETRERYLRFIKEYLAPRYVEFIGKEIQTAYLESYSEYGQNIFDRYVLYADFWIQDQEYRDPETGEILNRAALNEELEKIEKPAGISNPKDFRNEIVNFVLRARAGNNGKNPSWLSYEKLRVVIEKKMFSNTEDLLPVISFNAKASKEDQQKHNDFVKRMVERGYTEKQVRLLSEWYMRVRKSQEGHHHHHH”: “soluble”; “MGSDKIHHHHHHMVMLKMKKTIAYYRSSTDLQENSIEMQQIKAFEYSMKKRITIDEEYVDKDVSARKKTLMQRPGMNKLMKEIEAGVVGSIIVYKRDRFARKLQEHMQLYRLFQEYDIDVYFSSDSEVQMNYSPIGEYIEAILGSICENEGSLIAQRIQETKIAKFLSGKYAGNLPYGYEKGEPNADGQVNILQVSHEIEVVKEIYNALLNKECKSIQELCNDLNEKYKTEETKDWDQSKVVNIVKNPIYHGLRVMNFGSKEYKKAYKNIKVVEKTDWDIANEQLDKMIVKRETGKETIQFLLENILYCHECQKPLIAKKRMRSYQDYYIYECKEHDVCVEAGYIEVEILKHAKTFFHRLLDENFNELYERSTYQNVRKIKKLIGSQEMIIKGVTKKVGKLIDQWLNCQKMQREHEGNDCAKCQSNQHIGEIKEANEILKSEKRKLQHLDMRLYEIKNFKEKAKEWITHLECPKDILLLEKEERKRFYRDMIHCIQVDSWEYHIVFKHPFMLIQEVHQNSETV”: “not soluble”.
Next, “SGWVWNQFFVLEEYTGTDPLYVGKLHSDMDRGDGSIKYILSGEGAGIVFTIDDTTGDIHAIQRLDREERSQYTLRAQALDRRTGRPMEPESEFIIKIQD”: “soluble”; “GSHMSQPRPLLSPPETEEQLLAQAQQLSGYTLGELAALVGLVTPENLKRDKGWIGVLLEIWLGASAGSKPEQDFAALGVELKTIPVDSLGRPLETTFVCVAPLTGNSGVTWETSHVRHKLKRVLWIPVEGERSIPLAQRRVGSPLLWSPNEEEDRQLREDWEELMDMIVLGQVERITARHGEYLQIRPKAANAKALTEAIGARGERILTLPRGFYLKKNFTSALLARHFLIQ”: “soluble”; “MGSDKIHHHHHHMTWSATWRLSLELRQLRYLVGVVDAGSVSRAAQSLHVAQPALSAQIARLEEELGARLLIRSVRGVVPTEAGTAVLRQARLILKQVDAIAELAHEADADPTGSVSLGLPWTVRSVVGLPLLHQVRERLPQVRLEIIEGPSPALAMQTAQGKLDLAVVFENTPDNSLVLKPLATESLLLVGQRGSLVGRHNLKLEELAGLPLLMLSRPNGVREDIERQCAKRGIRLKIVAEINAPSLLIDAVRGGLGYSVLPACGIEQACRDGLLDAITLEGGSMQRTAHLGTSKLFALSRAAEHTAALLQESVAHAIGDRRWQATSPNEAD”: “not soluble”.
Next, “MGHHHHHHSHMTAPFFPRILGAVAFLNQETEPLTMNLQHHFLIAMPALQDPIFRRSVVYICEHNTNGAMGIIVNKPLENLKIEGILEKLKITPEPRDESIRLDKPVMLGGPLAEDRGFILHTPPSNFASSIRISDNTVMTTSRDVLETLGTDKQPSDVLVALGYASWEKGQLEQEILDNAWLTAPADLNILFKTPIADRWREAAKLIGVDILTMPGVAGHA”: “soluble”; “MGSDKIHHHHHHMFKRKVISFDIGSKNIKLVEGKCDGDKVIVTNMDMIETPKNSMNDGSIVDINLIAEAVRKLIDKVSTRTKNVVFTSQSTSIITRTVEIPWAKEKDMKSMIKYDIEQYLPIDLNEYIIKHKVIDEFQKEEVKMVRANVVVYPKKMAKAYWSLVEELELKPMALEVSLSAMEKILSSKDIITINEKDYQKEDTIAIVDIGSDEIEMNIIANGNLEFTRVLMGGGAYIDSSISNELSVDMDVAEEKKIIFGDLTLDNFSGEKQIVNEAMKNVIDRWNSEILRMLDYFKNKNKDKQIKKVYVHGGTSQIPGLCQYMKNSLGISVELIKNISTVSLDKKLEDKDITNYINAIGSIIM”: “not soluble”.
With “EYLDGFEAFTDQYKIKFQEFLDRFGIYYQPSTNKNAELFKVADSDIPSAEVKAYYVKEEWYFTPTNSDVDIKIQAICPIMTGQDEFGEVRNQPLFWIPYENIRPYIARERVMLSSLNNTRNSTIDDFFRLNLYKGDIVKTENLHNRALAEYCPTPDSMKMESKRIDKELQGFRDGLFVTQDTTWMKQAETKKSKGKKLEKARGKNITSRTRGQGEGAAETEAVEPKKQKASKNKAATRSVRRRK”, the “soluble on expression in E. coli” value is reported as “not soluble”.
For “NRWGSPWAVKPEDKAKYDAIFDSLSPVNGFLSGDKVKPVLLNSKLPVDILGRVWELSDIDHDGMLDRDEFAVAMFLVYCALEKEPVPMSLPPALVPPSKRKTWLEI”, the “soluble on expression in E. coli” value is reported as “soluble”.
As for “MLRITELKLPIDHPEEDLRVALLQHLGIDSSELLDFTLFKRSYDARKKSSELCFIYTIDFQVKDEAALLRKLANDRHVGPAPDVSYKVVGHAPEGLSERPIVVGFGPCGIFAGLLLAQMGFKPIILERGTEVRQRTKDTWALWRKNVLNAESNVQFGEGGAGTFSDGKLYSQIKDPKFIGRKVLHEFVKAGAPEEILYVSKPHIGTFRLTGVVENMRHQIEALGGEVRFQQRVTDLMIEDGQLLGVQLDSGEQIESRHVILALGHSARDTFRMLHGRGVFMEAKPFSVGFRIEHPQSLIDRARLGKYAGHPKLGAADYKLVHHASNGRSVYSFCMCPGGTVVAATSEPGRVVTNGMSQYSRNERNANSGIVVGISPEQDFPGSPLAGIELQERLESHAYLLGGSNYEAPAQLVGDFIAGRASTALGSVEPSYKPGVKLVDLAEALPAFAIEAIREALPAFDKQIKGFSLHDAVLTGIETRTSAPLRITRGPTMQSLNTKGLYPAGEGAGYAGGILSAGVDGIRVAEALVRDMLGIEGLEHHHHHH”, the “soluble on expression in E. coli” value is “soluble”.
With “MIIDDIINKIKSSNKIAISFHISPDGDSIGSSLGLLNGLRSIGKETYILSKEVVPESFEFLNFAREIDGNHFEVEDNTDLLITLDCGNIERLNFDTSDMISEDKKYTVINIDHHVTNDSFGDLNYINTKAASVGEIVYDLLSKMNISIDRTIAACLYTSILTDTGSFRFSNTTLNTHVVAGNLISTGLDFSEIHRKIFDNKKFEALKLQALVLNDMYLTFNNKLCVMKVTHDFIEKANAEDVDTGDLVSLGLKVNTAEVCMLLKEKDDCIKVSLRSKSYVDVRKIAEKFGGGGHIRAAGLSINSNILDAEKMILSEIQGELLEHHHHHH” the entry was “not soluble”.
In the case of “PRAAGHSEEVLEREASFSLTTIDGEVISLNNVGGDVVILWFMAAWCPSCVYMADLLDRLTEKYREISVIAIDFWTAEALKALGLNKPGYPPPDTPEMFRKFIANYGDPSWIMVMDDGSLVEKFNVRSIDYIVIMDKSSNVLYAGTTPSLGELESVIKSVQGG”, the “soluble on expression in E. coli” value was “soluble”.
Next, “MLDVEVEEKAGPKGKHNKDRTVYSYGTEKTSVVLDGRKVKIERPRLCVYKIRKLTLKDSNSFSRRTR”: “not soluble”.
With “MPSERRPFQTAFLSNRKTVGKLAERVQSRYDGLHKFKHICSAAMALIKEPLDKVKQRNEELEAAEEAAAQEALGREQEAARVSEWEERYKLSRSEFEQFWKGLPQTVQNKLQASQKTWKSGMDKICANNAKAEGKTPNGIKFSELACKTAKTEARLEELHNRKKALIDEMAREADKKELSKRL” the entry was “not soluble”.
